Assay results published in PMC6590058.

Key:
IRF1 = target: T1, IRF1 (UniProt P10914 1-325); assay: EMSA
T1 sequence: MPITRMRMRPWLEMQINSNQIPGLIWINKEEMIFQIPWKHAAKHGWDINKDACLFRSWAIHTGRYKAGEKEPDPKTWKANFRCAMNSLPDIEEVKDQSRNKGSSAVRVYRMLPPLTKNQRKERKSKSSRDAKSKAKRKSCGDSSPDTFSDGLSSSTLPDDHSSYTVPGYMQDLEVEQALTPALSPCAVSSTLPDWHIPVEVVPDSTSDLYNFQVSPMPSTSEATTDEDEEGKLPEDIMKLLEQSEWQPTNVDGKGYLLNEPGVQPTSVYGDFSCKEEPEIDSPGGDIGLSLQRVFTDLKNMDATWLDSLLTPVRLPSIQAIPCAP

SMAD4 = SMAD4 (UniProt Q13485 1-552); assay: EMSA
Chain of SMAD4 (Q13485 whole entry): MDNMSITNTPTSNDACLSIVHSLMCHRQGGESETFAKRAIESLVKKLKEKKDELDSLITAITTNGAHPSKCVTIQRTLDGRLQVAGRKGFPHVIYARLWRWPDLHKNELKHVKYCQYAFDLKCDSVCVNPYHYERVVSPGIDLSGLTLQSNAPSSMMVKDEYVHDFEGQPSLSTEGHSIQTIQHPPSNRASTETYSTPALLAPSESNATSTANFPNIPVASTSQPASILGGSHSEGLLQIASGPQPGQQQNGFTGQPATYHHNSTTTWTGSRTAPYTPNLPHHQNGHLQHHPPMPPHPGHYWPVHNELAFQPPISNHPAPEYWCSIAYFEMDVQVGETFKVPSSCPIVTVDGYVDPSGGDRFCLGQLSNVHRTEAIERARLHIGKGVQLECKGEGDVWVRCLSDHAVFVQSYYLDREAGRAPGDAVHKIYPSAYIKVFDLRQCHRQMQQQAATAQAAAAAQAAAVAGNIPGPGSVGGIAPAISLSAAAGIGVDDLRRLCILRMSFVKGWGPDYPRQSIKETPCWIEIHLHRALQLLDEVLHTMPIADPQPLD

B1: HAMP-BRE-25 (dsDNA)
DNA 1: TCTCCCGCCTTTTCGGCGCCACCAC
DNA 2: GTGGTGGCGCCGAAAAGGCGGGAGA
Q: Does B1 bind (IRF1)?
A: Result: no binding

Q: Does B1 bind (SMAD4)?
A: Result: binds

B2: IFI6-ISRE-25 (dsDNA)
DNA 1: GAGAGGGGAAAATGAAACTGCAGAG
DNA 2: CTCTGCAGTTTCATTTTCCCCTCTC
Q: Does B2 bind (IRF1)?
A: Result: binds

Q: Does B2 bind (SMAD4)?
A: Result: no binding
